# From patent publication US20180355338A1
# Columns and labels:
# [1] = molecular target: TY-145 protease variant I150N, S173P, S175P, F180Y (Bacillus sp. TY-145); assay: Ki fitted from Suc-AAPF-pNA activity; Tris buffer pH 8; ratio against m3 (without I150N)
# [2] = molecular target: TY-145 protease variant K146A, S173P, S175P, F180Y (Bacillus sp. TY-145); assay: Ki fitted from Suc-AAPF-pNA activity; Tris buffer pH 8; ratio against m3 (without K146A)
# [3] = molecular target: TY-145 protease variant K146T, S173P, S175P, F180Y (Bacillus sp. TY-145); assay: Ki fitted from Suc-AAPF-pNA activity; Tris buffer pH 8; ratio against m3 (without K146T)
# [4] = molecular target: TY-145 protease variant S114Q, S173P, S175P, F180Y (Bacillus sp. TY-145); assay: Ki fitted from Suc-AAPF-pNA activity; Tris buffer pH 8; ratio against m3 (without S114Q)
# [5] = molecular target: TY-145 protease variant G182A (Bacillus sp. TY-145); assay: Ki fitted from Suc-AAPF-pNA activity; Model B detergent; relative to TY145 backbone
# [6] = molecular target: TY-145 protease variant I150S (Bacillus sp. TY-145); assay: as above
# [7] = molecular target: TY-145 protease variant L184F (Bacillus sp. TY-145); assay: as above
# [8] = molecular target: TY-145 protease variant Q70A (Bacillus sp. TY-145); assay: as above
# [9] = molecular target: TY-145 protease variant Q70F (Bacillus sp. TY-145); assay: as above
# [10] = molecular target: TY-145 protease variant S114A (Bacillus sp. TY-145); assay: as above
# [11] = molecular target: TY-145 protease variant I150A, S173P, S175P, F180Y (Bacillus sp. TY-145); assay: Ki fitted from Suc-AAPF-pNA activity; Model B detergent; ratio against m3 (without I150A)
# [12] = molecular target: TY-145 protease variant I150N, S173P, S175P, F180Y (Bacillus sp. TY-145); assay: Ki fitted from Suc-AAPF-pNA activity; Model B detergent; ratio against m3 (without I150N)
# [13] = molecular target: TY-145 protease variant S173P, S175P, I178Y, F180Y (Bacillus sp. TY-145); assay: Ki fitted from Suc-AAPF-pNA activity; Model B detergent; ratio against m3 (without I178Y)
# [14] = molecular target: TY-145 protease variant K146A, S173P, S175P, F180Y (Bacillus sp. TY-145); assay: Ki fitted from Suc-AAPF-pNA activity; Model B detergent; ratio against m3 (without K146A)
# [15] = molecular target: TY-145 protease variant K146N, S173P, S175P, F180Y (Bacillus sp. TY-145); assay: Ki fitted from Suc-AAPF-pNA activity; Model B detergent; ratio against m3 (without K146N)
# [16] = molecular target: TY-145 protease variant K146W, S173P, S175P, F180Y (Bacillus sp. TY-145); assay: Ki fitted from Suc-AAPF-pNA activity; Model B detergent; ratio against m3 (without K146W)
# [17] = molecular target: TY-145 protease variant S173P, S175P, F180Y, L184W (Bacillus sp. TY-145); assay: Ki fitted from Suc-AAPF-pNA activity; Model B detergent; ratio against m3 (without L184W)
# [18] = molecular target: TY-145 protease variant S173P, S175P, F180Y, L184Y (Bacillus sp. TY-145); assay: Ki fitted from Suc-AAPF-pNA activity; Model B detergent; ratio against m3 (without L184Y)
# [19] = molecular target: TY-145 protease variant S173P, S175P, F180Y, R224D (Bacillus sp. TY-145); assay: Ki fitted from Suc-AAPF-pNA activity; Model B detergent; ratio against m3 (without R224D)
# [20] = molecular target: TY-145 protease variant S173P, S175P, F180Y, R224G (Bacillus sp. TY-145); assay: Ki fitted from Suc-AAPF-pNA activity; Model B detergent; ratio against m3 (without R224G)
# [21] = molecular target: TY-145 protease variant S173P, S175P, F180Y, R224S (Bacillus sp. TY-145); assay: Ki fitted from Suc-AAPF-pNA activity; Model B detergent; ratio against m3 (without R224S)
# [22] = molecular target: TY-145 protease variant S27K, I150N, S171N, S173P, G174R, S175P, F180Y, Q198E, T297P (Bacillus sp. TY-145); assay: Ki fitted from Suc-AAPF-pNA activity; Model B detergent; ratio against m4 (without I150N)
# [23] = molecular target: TY-145 protease variant S27K, S171N, S173P, G174R, S175P, F180Y, L184W, Q198E, T297P (Bacillus sp. TY-145); assay: Ki fitted from Suc-AAPF-pNA activity; Model B detergent; ratio against m4 (without L184W)
# [24] = molecular target: TY-145 protease variant S27K, S173P, G174K, S175P, F180Y, L184F, Q198E, N199K, T297P (Bacillus sp. TY-145); assay: Ki fitted from Suc-AAPF-pNA activity; Model B detergent; ratio against m8 (without L184F)
# [25] = molecular target: TY-145 protease variant S173P, S175P, I178F, F180Y (Bacillus sp. TY-145); assay: Ki fitted from Suc-AAPF-pNA activity; Model B detergent; ratio against m3 (without I178F); second row of the same variant
# [26] = molecular target: TY-145 protease variant S173P, S175P, F180Y, L184F (Bacillus sp. TY-145); assay: Ki fitted from Suc-AAPF-pNA activity; Model B detergent; ratio against m3 (without L184F); second row of the same variant
substance,measurement,setting,value
"Z-Gly-Ala-NHCH(CH2C6H4pOH)C(OH)(SO3Na)-H, wherein Z is benzyloxycarbonyl (peptide)",relative Ki mutation,[1],0.21
same,relative Ki mutation,[2],0.29
same,relative Ki mutation,[3],0.06
same,relative Ki mutation,[4],0.34
same,"IF (binding constant improvement factor, relative Ki)",[5],0.54
same,"IF (binding constant improvement factor, relative Ki)",[6],0.2
same,"IF (binding constant improvement factor, relative Ki)",[7],0.44
same,"IF (binding constant improvement factor, relative Ki)",[8],0.39
same,"IF (binding constant improvement factor, relative Ki)",[9],0.12
same,"IF (binding constant improvement factor, relative Ki)",[10],0.47
same,relative Ki mutation,[11],0.5
same,relative Ki mutation,[12],0.35
same,relative Ki mutation,[13],0.53
same,relative Ki mutation,[14],0.34
same,relative Ki mutation,[15],0.93
same,relative Ki mutation,[16],0.23
same,relative Ki mutation,[17],0.5
same,relative Ki mutation,[18],0.24
same,relative Ki mutation,[19],0.36
same,relative Ki mutation,[20],0.47
same,relative Ki mutation,[21],0.5
same,relative Ki mutation,[22],0.24
same,relative Ki mutation,[23],0.57
same,relative Ki mutation,[24],0.36
same,relative Ki mutation,[25],0.49
same,relative Ki mutation,[26],0.27
